Results from patent publication US20210380664A1.

Columns and labels:
[1] = target: HCMV virus particles, strain TB40/E; experiment: cell-based or functional assay
[2] = target: HCMV virus particles, strain TB40/E; experiment: immunofluorescence: intensity of anti-human Fc staining per virus particle on HFFs at different PDGFR-alpha-Fc concentrations

## soluble PDGFR-alpha-Fc chimera (R&D 6765-PR-050) (Fc fusion)
[1]
  EC50 of inhibition of infection of HECs (IE antigen staining): 0.02 to 0.05 µg/mL
  EC50 of inhibition of infection of HFFs (IE antigen staining): 0.01 to 0.02 µg/mL
  complete abrogation of infection of HFFs: 200 ng/mL
  infectivity of already adsorbed virus on HFFs (200 ng/ml, post adsorption): 50%
  reduction of adsorption of pre-treated virus particles to HECs (100 ng/ml): 75%
  reduction of adsorption of pre-treated virus particles to HFFs (100 ng/ml): 50%
  reduction of penetration of pre-treated virus particles into HFFs (100 ng/ml): 75%
[2]
  EC50: 0.108 µg/mL
